Data published in patent US8026342B2, “Compositions and methods for binding sphingosine-1-phosphate” (Lpath, Inc., priority 2006, dated 2011).

Legend:
[1] = Circular dichroism thermal denaturation of LT1009; assay type: physicochemical
Procedure: Circular dichroism spectroscopy was performed separately from the formulation studies. An Aviv 202 CD spectrophotometer was used to perform these analyses. Near UV CD spectra were collected from 400 nm to 250 nm. In this region, the disulfides and aromatic side chains contribute to the CD signals. In the far UV wavelength region (250-190 nm), the spectra are dominated by the peptide backbone. Thermal denaturation curves were generated by monitoring at 205 nm, a wavelength commonly used for b-sheet proteins. Data was collected using 0.1 mg/ml samples with heating from 25° C. to 85° C. Data were collected in 1° C. increments. The total time for such a denaturation scan was between 70 and 90 minutes. The averaging time was 2 seconds.

[2] = tested on: cardiac scar formation / immune-cell wound infiltration; assay: Permanent myocardial infarction murine model (fibrosis, immune cell infiltration); assay type: in vivo, mice
Procedure: SPHINGOMAB reduced immune-cell wound infiltration in vivo. Mice were subjected to MI, treated with saline or 25 mg/kg SPHINGOMAB 48 hr. after surgery and then sacrificed on day 4. SPHINGOMAB reduced macrophage (A) and mast cell (B) infiltration into the wound. Data are represented as fold decrease of saline-treated values.
Studies evaluated the efficacy of SPHINGOMAB to reduce cardiac scar formation after permanent myocardial infarction (MI) via ligation of the left descending coronary artery in mice. Systemic administration of 25 mg/kg SPHINGOMAB or saline was initiated 48 hrs after surgery. Antibody administration at 48 hr. was chosen to allow normal, reparative scar formation to occur during the early remodeling phase and permit beneficial, S1P-stimulated angiogenesis immediately after the MI. Two weeks after the infarct, mice were sacrificed and fibrosis was accessed by Masson's trichrome staining of the cardiac tissue. […] As a control for any non-specific wound-healing responses, sham animals underwent thoracotomy without coronary artery ligation (FIG. 7E).
Based upon the similarities of immune and inflammatory responses in CNV and CVD, the efficacy of SPHINGOMAB to mitigate immune cell infiltration into a wound was evaluated in a murine infarct model as an indication of SPHINGOMAB's potential effects in mitigating these damages during AMD [Vine, et al. (2005), Ophthalmology., vol 112: 2076-80; and Seddon and Chen (2004), Int Ophthalmol Clin., vol 44: 17-39]. Four days post-MI, macrophage and mast cell infiltration was evaluated using MAC-1 and MCG35 antibodies, respectively, within the area at risk.

[3] = Thermochallenge stability of antibody variants (TM); assay type: physicochemical
Procedure: iii. Stability. The humanized variants were tested for stability after challenge at high temperature. The approximate midpoints of the thermal unfolding transitions (TM) were determined for every humanized variant by subjecting the supernatants to temperatures ranging from 60 to 74° C. […] The binding properties of each variant were determined before and after thermochallenge.

[4] = tested on: CNV lesions; assay: Laser-induced rupture of Bruch's membrane, murine CNV model (Example 4); assay type: in vivo, C57BL6/J mice; details: 0.5 μg
Procedure: Female C57BL6/J mice were subjected to laser-induced rupture of Bruch's membrane and administered either 0.5 μg of Sphingomab or an isotype-matched non-specific (NS) antibody diluted in 2 μl of physiological saline. Mice were sacrificed 14 and 28 days after laser rupture.
To induce CNV lesions, the pupils were dilated with ophthalmic tropicamide (0.5%) and phenylephrine (2.5%). A coverslip was placed on the eye. An Oculight GL 532 nm (Iridex Corporation, Mountain View, Calif.) coupled to a slit lamp set to deliver a 100 msec pulse at 150 mW with a 50 μm spot size was used to rupture Bruch's membrane in three quadrants of the right eye located approximately 50 μm from the optic disc at relative 9, 12 and 3 o'clock positions. The left eye served as an uninjured control in all cases. Any lesion not associated with a vapor bubble or lesions that became confluent were excluded from analysis.
To measure CNV lesion size, choroidal flatmounts of the sclera-choroid-RPE complex were prepared and stained for vasculature (R. communis agglutinin I; red) and pericytes (CD 140b; green). […]
To assess collagen deposition, the sclera-choroid-RPE complex was stained with Masson's Trichrome. […] Approximately 30 sections per lesion were evaluated. Quantitation of the volume of collagen deposition was calculated in the same manner as described for CNV lesion volume.

Molecule | apparent Tm ([1]; pH 6.0) | apparent Tm ([1]; pH 7.2) | perivascular fibrosis ([2]; 25 mg/kg from 48 hrs after surgery, two weeks after infarct) | density of inflammatory macrophages ([2]; four days post-MI) | density of mast cells ([2]; four days post-MI) | TM (approximate midpoint of thermal unfolding transition) [3] [°C] | choroidal neovascularization ([4]; 14 and 28 days after laser rupture) | fibrosis associated with CNV lesion formation ([4]; 28 days after laser rupture)
LT1009: humanized anti-S1P IgG1/kappa mAb with Cys to Ala in HCDR2, light chain with 5 backmutations; SEQ ID NO: 31/32 | about 77 °C | approximately 73 °C |  |  |  |  |  | 
LT1002: murine anti-S1P monoclonal antibody, IgG1 kappa, from hybridoma clone 306D326.26 (antibody, listed as Mus sp., V domains shown) VH: QAHLQQSDAELVKPGASVKISCKVSGFIFIDHTIHWMKQRPEQGLEWIGCISPRHDITKYNEMFRGKATLTADKSSTTAYIQVNSLTFEDSAVYFCARGGFYGSTIWFDFWGQGTTLTVS VL: ETTVTQSPASLSMAIGEKVTIRCITTTDIDDDMNWFQQKPGEPPNLLISEGNILRPGVPSRFSSSGYGTDFLFTIENMLSEDVADYYCLQSDNLPFTFGSGTKLEIK |  |  | almost complete abrogation | dramatically attenuated | dramatically attenuated | 65 | dramatically attenuates | significantly reduces
